# Test: soluble on expression in E. coli; label from the status in PepcDB or PDB records
row,Sequence,soluble on expression in E. coli
1,SEASFVQTTMALGLPSKKASSRNVIVERRNLITVCRFSVKTLLEKYTAEPIDDSSEEFVNFAAILEQILSHRFKACAPAGPASWFSSDGQRGFWDYIRLACSKVPNNCVSSIENMENISTARAKGRAWIRVALMEKRMSEYITTALRDNRTTRRFYDSGAIMLREEATVLTGMLIGLSAIDFSFCLKGEVLDGKTPVVIDYTPYLKFTQSYDYLTDEEERHSAESSTSEDNSPEHPYLPLVTDEDSWYNKWHKMEQKFRIVYAQKGYLEELVRLRESQLKDLEAENRRLQLQLEEAAAQNQREKRELEGVILELQEQLPDPPPPPRTGLIPGDHAPLAQGSKELTTSLVNQWPSLSTLHRPEGASNSKLYRRHSFMSTEPLSAEASLSSDSQRLGEAKRDEEPWGPIGSSEPN,not soluble
2,SEDHQHVPIDIQTSKLLDWLVDRRHCSLKWQSLVLTIREKINAAIQDMPESEEIAQLLSGSYIHYFHCLRILDLLKGTEASTKNIFGRYSSQRMKDWQEIIALYEKDNTYLVELSSLLVRNVNYEIPSLKKQIAKCQQLQQEYSRKEEECQAGAAEMREQFYHSCKQYGITGENVRGELLALVKDLPSQLAEIGAAAQQSLGEAIDVYQASVGFVCESPTEQVLPMLRFVQKRGNSTVYEWRTGTEPSVVERPHLEELPEQVAEDAIDWGDFGVEAVSEGTDSGISAEAAGIDWGIFPESDSKDPGGDGIDWGDDAVALQITVLEAGTQAPEGVARGPDALTLLEYTETRNQFLDELMELEIFLAQRAVELSEEADVLSVSQFQLAPAILQGQTKEKMVTMVSVLEDLIGKLTSLQLQHLFMILASPRYVDRVTEFLQQKLKQSQLLALKKELMVQKQQEALEEQAALEPKLDLLLEKTKELQKLIEADISKRYSGRPVNLMGTSL,soluble
3,SEDKKKKRSPKPCLTQQAQAPGTLRRVPVPTSHSGSLALGLPHLPSPKQRAKFKRAGKEKCRPVLAGGGGGSAGTPLQHSFLTEVTDVYEMEGGLLNLLNDFHSGRLQAFGKECSFEQLEHVREMQEKLARLHFSLDVCGEEEDEEEEEDGVTEGLPEEQKKTMADRNLDQLLSNLEDLSNSIQKLHLAENAEPEDQPAA,soluble
4,SELPRKANRRNSSCSSISSVSESSSPSALDESTLTKILPTDNFRGGRGFASPSPPTSLLSEPLSRMDVLSEKIWDYHNKVSQTDEMLQRKLHLRDMLYTAISPVFPLSGLYVVGSSLNGFGNNSSDMDLCLMITNKDLDQKNDAVVVLNLILSTLQYEKFVESQKLILAKVPILRINFAAPFDDITVDLNANNSVAIRNTHLLCYYSSYDWRVRPLVSVVKEWAKRKGINDANKSSFTSYSLVLMVIHFLQCGPTKVLPNLQQSYPNRFSNKVDVRTLNVTMALEEVADDIDQSLSEKTTLGELLIGFLDYYANEFNYDRDAISIRQGRRVERAALAVRPKIHSNSEGDKETPPPSSSASTSSIHNGGTPGIPMHHSISNPHFWRSQWRCVCIEEPFTNSNTAHSIYDEMVFEAIKKAFREAHGELQHNHDLDKLMECEPIKASTTNTGAAVFAATYEGERPLAQQPNTIACASLRVLNSIPVSSGPGHYHYQQQSNQNLSRPQRPGSNQGYQMNNNRGFNGNNQQQHQNRRSFNNQSSSNPGNGSTGPRSSRSNENVRDSSRQQNSQKGSSGVSVSKENVASTTGVPVDKKQQNSNRKDDGNRTKRSPMVQSPEPAKTKSEKTPMASSNVSQ,soluble
5,SESQDIKALQKELEQFAKLLKQKRITLGYTQADVGLTLGVLFGKVFSQTTICRFEALQLSFKNMCKLRPLLQKWVEEADNNENLQEICKAETLVQARKRKRTSIENRVRGNLENLFLQCPKPTLQQISHIAQQLGLEKDVVRVWFCNRRQKGKRSSSDYAQ,soluble
6,SETETKTLPLENASILSEGSLQEGHRLWIGNLDPKITEYHLLKLLQKFGKVKQFDFLFHKSGALEGQPRGYCFVNFETKQEAEQAIQCLNGKLALSKKLVVRWAHAQVKRYDHNKNDKILPISLEPSSSTEPAQSNLSVTAKIKAIEAKLKMMAENPDAEYPAAPVYSYFKPPDKKRTTPYSRTAWKSRR,soluble
7,SETWSVEQVCSWLVEKNLGELVHRFQEEEVSGAALLALNDRMVQQLVKKIGHQAVLMDLIKKYKQNTQGLKSPENPKKAALVMQTEAARDYRDKESSSPARHGEQMPSFYPAENLDNGLIDQRVLKQRRNVKQILARSKALQWTKSYVLPEFPYDVKCMLAEQKCPDHSMRIRIIEFLQADMTKYLEGSLYPSTQQYNDVVNALLQAHPFLDEDGCGFAGV,soluble
8,SEVRWCATSDPEQHKCGNMSEAFREAGIQPSLLCVRGTSADHCVQLIAAQEADAITLDGGAIYEAGKEHGLKPVVGEVYDQEVGTSYYAVAVVRRSSHVTIDTLKGVKSCHTGINRTVGWNVPVGYLVESGRLSVMGCDVLKAVSDYFGGSCVPGAGETSYSESLCRLCRGDSSGEGVCDKSPLERYYDYSGAFRCLAEGAGDVAFVKHSTVLENTDGKTLPSWGQALLSQDFELLCRDGSRADVTEWRQCHLARVPAHAVVVRADTDGGLIFRLLNEGQRLFSHEGSSFQMFSSEAYGQKDLLFKDSTSELVPIATQTYEAWLGHEYLHAMKGLLCDPNRLPPYLRWCVLSTPEIQKCGDMAVAFRRQRLKPEIQCVSAKSPQHCMERIQAEQVDAVTLSGEDIYTAGKKYGLVPAAGEHYAPEDSSNSYYVVAVVRRDSSHAFTLDELRGKRSCHAGFGSPAGWDVPVGALIQRGFIRPKDCDVLTAVSEFFNASCVPVNNPKNYPSSLCALCVGDEQGRNKCVGNSQERYYGYRGAFRCLVENAGDVAFVRHTTVFDNTNGHNSEPWAAELRSEDYELLCPNGARAEVSQFAACNLAQIPPHAVMVRPDTNIFTVYGLLDKAQDLFGDDHNKNGFKMFDSSNYHGQDLLFKDATVRAVPVGEKTTYRGWLGLDYVAALEGMSSQQC,soluble
9,SFVKDFKPQALGDTNLFKPIKIGNNELLHRAVIPPLTRMRALHPGNIPNRDWAVEYYTQRAQRPGTMIITEGAFISPQAGGYDNAPGVWSEEQMVEWTKIFNAIHEKKSFVWVQLWVLGWAAFPDNLARDGLRYDSASDNVFMDAEQEAKAKKANNPQHSLTKDEIKQYIKEYVQAAKNSIAAGADGVEINSANGYLLNQFLDPHSNTRTDEYGGSIENRARFTLEVVDALVEAIGHEKVGLRLSPYGVFNSMSGGAETGIVAQYAYVAGELEKRAKAGKRLAFVHLVEPRVTNPFLTEGEGEYEGGSNDFVYSIWKGPVIRAGNFALHPEVVREEVKDKRTLIGYGRFFISNPDLVDRLEKGLPLNKYDRDTFYQMSAHGYIDYPTYEEALKLGWDKS,soluble
10,SGALWDVPSPAATQKATLSEGVYRIMQRGLFGKTQVGVGIHMEGVFHTMWHVTRGSVICHETGRLEPSWADVRNDMISYGGGWRLGDKWDKEEDVQVLAIEPGKNPKHVQTKPGLFKTLTGEIGAVTLDFKPGTSGSPIINKKGKVIGLYGNGVVTKSGDYVSAITQAERIGEGPDYEVDEDIFRKKRLTIMDLHPGAGKTKRILPSIVREALKRRLRTLILAPTRVVAAEMEEALRGLPIRYQTPAVKSDHTGREIVDLMCHATFTTRLLSSTRVPNYNLIVMDEAHFTDPCSVAARGYISTRVEMGEAAAIFMTATPPGSTDPFPQSNSPIEDIEREIPERSWNTGFDWITDYQGKTVWFVPSIKAGNDIANCLRKSGKRVIQLSRKTFDTEYPKTKLTDWDFVVTTDISEMGANFRAGRVIDPRRCLKPVILTDGPERVILAGPIPVTPASAAQRRGRIGRNPAQEDDQYVFSGDPLKNDEDHAHWTEAKMLLDNIYTPEGIIPTLFGPEREKTQAIDGEFRLRGEQRKTFVELMRRGDLPVWLSYKVASAGISYKDREWCFTGERNNQILEENMEVEIWTREGEKKKLRPKWLDARVYADPMALKDFKEFASGRK,soluble
11,SGEVEISARAYGKMCLHASRYPHAAVNGLLLAPATGSGECLCLTDCVPLFHSHLALSVMLEVALNQVDVWGAQAGLVVAGYYHANAVLDDQSPGPLALKIAGRIAEFFPRAVLIMLDNKKLVTRPRVPPVIVLENQGLQWVPKDKNLVMWRDWEESRQMVGALLEGRAHQHLVDFDCHLDDIRQDWTNQRLNTQITQWSGSTDGNA,soluble
12,SGKMVSVINTVDTSHEDMIHDAQMDYYGTRLATCSSDRSVKIFDVRNGGQILIADLRGHEGPVWQVAWAHPMYGNILASCSYDRKVIIWREENGTWEKSHEHAGHDSSVNSVCWAPHDYGLILACGSSDGAISLLTYTGEGQWEVKKINNAHTIGCNAVSWAPAVVPGSLIDHPSGQKPNYIKRFASGGCDNLIKLWKEEEDGQWKEEQKLEAHSDWVRDVAWAPSIGLPTSTIASCSQDGRVFIWTCDDASSNTWSPKLLHKFNDVVWHVSWSITANILAVSGGDNKVTLWKESVDGQWVCISDVNKGQGSVSASVTEGQQNEQ,soluble
13,SGRLSVSRQNFEVHKHLNRLNKPAVKSIQSPDGDIIDCVHISKQPAFDHPFLKDHKIQMGPSYTPESLFGESKVSEKPKESVNPITQLWHQNGVCSEGTIPVRRTKKEDVLRASSVKRYGKKKHLSVPLPRSADPDLINQSGHQHAIAYVEGGKFYGAKATINVWEPKVQSSNEFSLSQLWILGGSFGQDLNSIEAGWQVSPDLYGDNNTRLFTYWTSDAYQATGCYNLLCSGFIQINSQIAMGASISPVSGFHNPQYDISITIWKDPKEGHWWMQFGDGYVLGYWPSFLFSYLADSASIVEWGGEVVNMEEDGHHTTTQMGSGQFPDEGFTKASYFRNIQVVDSSNNLKEPKGLNTFTEKSNCYDVEVGKNDDWGHYFYYGGPGRNPNCQ,soluble
14,SGSEPTKVMVAVNASTIKDYPNPSISCKRAFEWTLEKIVRSNTSDFKILLLHVQVVDEDGFDDVDSIYASPEDFRDMRQSNKAKGLHLLEFFVNKCHEIGVGCEAWIKTGDPKDVICQEVKRVRPDFLVVGSRGLGRFQKVFVGTVSAFCVKHAECPVMTIKRNADETPSDPADD,soluble
15,SGTPPGLQTDCEALLSRFQETDSVRFEDFTELWRNMKFGTIFCGRMRNLEKNMFTKEALALAWRYFLPPYTFQIRVGALYLLYGLYNTQLCQPKQKIRVALKDWDEVLKFQQDLVNAQHFDAAYIFRKLRLDRAFHFTAMPKLLSYRMKKKIHRAEVTEEFKDPSDRVMKLITSDVLEEMLNVHDHYQNMKHVISVDKSKPDKALSLIKDDFFDNIKNIVLEHQQWHKDRKNPSLKSKTNDGEEKMEGNSQETERCERAESLAKIKSKAFSVVIQASKSRRHRQVKLDSSDSDSASGQGQVKATRKKEKKERLKPAGRKMSLRNKGNVQNIHKEDKPLSLSMPVITEEEENESLSGTEFTASKKRRKH,soluble
16,SHMPASVQLHTAVEMHHWCIPFSVDGQPAPSLRWLFNGSVLNETSFIFTEFLEPAANETVRHGCLRLNQPTHVNNGNYTLLAANPFGQASASIMAAFMDNPFEFNPEDPIPDTNSTSGDPVEKKDE,soluble
17,SHPALTQLRALRYSKEIPALDPQLLDWLLLEDSMTKRFEQQGKTVSVTMIREGFVEQNEIPEELPLLPKESRYWLREILLSADGEPWLAARTVVPVSTLSGPELALQKLGKTPLGRYLFTSSTLTRDFIEIGRDAGLWGRRSRLRLSGKPLLLTELFLPASPLY,soluble
18,SIRTSFIKLPGSDGSRYCDSWRLAAETNNVGTWDLIPSICVDSVAEYLNGDQFLSDYSVIVDYALAFAKSVEISGDGKDVWIFDIDETLLTNIDYYKAHGYGSEPYDDNKFSEWVEQGTAPAFDASLRLYNALKKLGFTIILLTGRDEHQRTSTETNLRDAGYSGWERLLLRGPNDQGKSATNYKSEQRSKLIEEGFKIRGNSGDQWSDLQGFAVADRSFKVPNPMYYIP,soluble
19,SKDCIIQRYKDGDVNNIYTANRNEEITIEEYKVFVNEACHPYPVILPDRSVLSGDFTSAYADDDESC,soluble

# Reference: the DeepSol protein solubility set
